Laboratory results from publication doi:10.1101/2024.05.02.592261.
“And” between values parts separate entries of the source, which are not always exact repeats. Equal values may be shown once.

Biological target: His-EutM (UniProt P41791)
Assay: pull-down

Chain of UniProt P41791 (P41791 whole entry): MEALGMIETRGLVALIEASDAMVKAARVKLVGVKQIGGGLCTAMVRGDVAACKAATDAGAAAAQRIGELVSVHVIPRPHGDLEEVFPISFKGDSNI

Row | Substance | molar ratio of His-EutM to dual-modified EutM in the purified hybrid scaffold
1 | SpyC-EutM-SnoopC | 3.9 :1 and 8.8 :1
2 | SnoopT-EutM-SpyT | 3.3 :1 and 7.6 :1
